Assay results as given in paper PMC8809517, “Cofactor-independent RNA editing by a synthetic S-type PPR protein”.

T1: GFP-9S library array, motif 4 ND N98V;D124T (synthetic construct, N98V;D124T)
T1 chain: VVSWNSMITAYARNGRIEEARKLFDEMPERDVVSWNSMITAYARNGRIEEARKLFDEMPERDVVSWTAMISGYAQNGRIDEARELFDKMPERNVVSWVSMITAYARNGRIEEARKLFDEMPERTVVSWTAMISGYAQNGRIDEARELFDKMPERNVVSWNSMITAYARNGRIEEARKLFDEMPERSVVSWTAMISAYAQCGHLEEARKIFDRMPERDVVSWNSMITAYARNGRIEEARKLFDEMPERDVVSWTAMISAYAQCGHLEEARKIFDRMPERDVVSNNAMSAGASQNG

T2: GFP-9S library array, motif 4 ND N98S;D124M (synthetic construct, N98S;D124M)
T2 chain: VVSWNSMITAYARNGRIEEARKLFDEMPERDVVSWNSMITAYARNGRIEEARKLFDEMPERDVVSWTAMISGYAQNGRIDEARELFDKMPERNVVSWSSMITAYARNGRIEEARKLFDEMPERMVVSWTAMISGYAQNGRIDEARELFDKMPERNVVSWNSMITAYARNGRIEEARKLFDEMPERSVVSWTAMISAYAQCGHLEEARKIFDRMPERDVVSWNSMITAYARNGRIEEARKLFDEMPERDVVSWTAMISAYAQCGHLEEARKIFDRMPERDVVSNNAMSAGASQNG

T3: GFP-9S library array, motif 4 ND N98E;D124M (synthetic construct, N98E;D124M)
T3 chain: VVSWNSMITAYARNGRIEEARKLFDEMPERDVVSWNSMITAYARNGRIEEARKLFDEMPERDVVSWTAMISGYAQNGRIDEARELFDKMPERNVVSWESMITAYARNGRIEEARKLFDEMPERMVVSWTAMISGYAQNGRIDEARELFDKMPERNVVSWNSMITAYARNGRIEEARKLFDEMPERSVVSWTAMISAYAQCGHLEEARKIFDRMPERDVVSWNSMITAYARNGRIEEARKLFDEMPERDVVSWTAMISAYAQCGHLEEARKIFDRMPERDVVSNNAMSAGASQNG

T4: GFP-9S library array, motif 4 ND N98D;D124S (synthetic construct, N98D;D124S)
T4 chain: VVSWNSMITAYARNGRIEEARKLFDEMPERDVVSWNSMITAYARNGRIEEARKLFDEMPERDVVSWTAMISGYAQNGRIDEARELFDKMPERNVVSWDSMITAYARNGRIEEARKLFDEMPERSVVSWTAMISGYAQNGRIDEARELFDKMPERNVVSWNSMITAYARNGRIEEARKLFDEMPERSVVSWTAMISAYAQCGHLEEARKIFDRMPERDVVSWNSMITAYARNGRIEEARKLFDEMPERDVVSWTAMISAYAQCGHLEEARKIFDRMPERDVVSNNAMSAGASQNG

T5: GFP-9S library array, motif 4 ND N98L;D124W (synthetic construct, N98L;D124W)
T5 chain: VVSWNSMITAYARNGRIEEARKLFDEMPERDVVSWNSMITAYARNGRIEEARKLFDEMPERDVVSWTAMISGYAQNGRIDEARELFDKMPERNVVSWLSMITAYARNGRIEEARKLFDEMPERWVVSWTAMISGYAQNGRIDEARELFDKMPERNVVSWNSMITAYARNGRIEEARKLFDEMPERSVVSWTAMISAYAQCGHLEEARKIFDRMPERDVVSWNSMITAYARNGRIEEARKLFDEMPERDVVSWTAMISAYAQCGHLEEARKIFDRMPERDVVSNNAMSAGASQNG

B1: IR-rpoA-A (ssRNA)
RNA: AUUAAACGUGA
B2: Cy5-rpoA (ssRNA)
RNA: AUUACACGUGA
B3: Cy5-rpoA-G (ssRNA)
RNA: AUUAGACGUGA
B4: IR-rpoA-U (ssRNA)
RNA: AUUAUACGUGA

What was measured:
Experiment in all cases: high-throughput RNA pulldown from lysate on Ni-NTA beads; HRP: 50 mM Tris pH 8, 150 mM NaCl, 1 mM beta-mercaptoethanol, 50 ug/ml BSA, 3 ug/ml yeast RNA, 0.5% heparin; ITC and FP: Tris pH 8, 200 mM KCl, 5% glycerol; MST: 50 mM Tris pH 8, 200 mM NaCl, 1 mM DTT, BSA, heparin, 0.05% Tween 20
Details in all cases: tags: N-terminal His-eGFP
[1] = target: T1, GFP-9S library array, motif 4 ND …
[2] = target: T2, GFP-9S library array, motif 4 ND …
[3] = target: T3, GFP-9S library array, motif 4 ND …
[4] = target: T4, GFP-9S library array, motif 4 ND …
[5] = target: T5, GFP-9S library array, motif 4 ND …

| Binder | Kd ([1]; label: 5' IRDye 800CW) [nM] | Kd ([2]; label: 5' IRDye 800CW) [nM] | Kd ([3]; label: 5' IRDye 800CW) [nM] | Kd ([4]; label: 5' IRDye 800CW) [nM] | Kd ([5]; label: 5' IRDye 800CW) [nM] | Kd ([1]; label: 5' Cy5) [nM] | Kd ([2]; label: 5' Cy5) [nM] | Kd ([3]; label: 5' Cy5) [nM] | Kd ([4]; label: 5' Cy5) [nM] | Kd ([5]; label: 5' Cy5) [nM] |
| --- | --- | --- | --- | --- | --- | --- | --- | --- | --- | --- |
| B1 | 36.3 | 369 | 360 | 759 | 247 | – | – | – | – | – |
| B2 | – | – | – | – | – | 89.3 | 120 | 105 | 401 | 111 |
| B3 | – | – | – | – | – | 86.7 | 183 | 136 | 260 | 99.9 |
| B4 | 29.3 | 160 | 206 | 470 | 248 | – | – | – | – | – |
